Reference: the DeepSol protein solubility set

assay: soluble on expression in E. coli; label from the status in PepcDB or PDB records

**Q.** For “MGSDKIHHHHHHMNADDAYKPIQRATLSEASWRILRIAQSVELRHPVSHETALAIWGVELPADSDCSVVSLRSSQGGYAGTDVDYGWSGESPAFGHSEHSIRLGQDFPDSDFQYFPDSQAVSRNQIPGLRQSASQPSQFPQSPAKLHTVAQSPARRGRVKKSTSVSADVTVHVWKGLSARHVREVAGVPVLMPVPAWSLAAGRWGIQDIVMVAESLIRHRFATRKGLIEFVKTESVPYRSKCLDALALVQSGSDSPKETEMRLTLVCYGLPIMQPNCVVPGVNFANGAAVTLDLVDAEHRFGLDYQGDHHRTDRAQYRRDQNKLSRLAAAGWTVFSVTQLDLSDELHRAAFAMNVAHALSSIVGRPIGVTTPLPWRKVVLRYRKARKLRLLD”, which “soluble on expression in E. coli” value is on record?
**A.** not soluble

**Q.** With “MGSDKIHHHHHHMNEIFVFHGQEVRTVTINNEPWFVGKDVADILGYSKSRNAIALHVDEDDALKQGITDNLGRMQETIIINESGLYSLILSSKLPQVKEFKRWVTSEVLPQIRQQGAYVPENLSDEAFIALFTGQKKLKEHQLALAQDVDYLKNEQPIHPSFAQALLKKRKARVVSCLGGMDSPAYADKVFAQSVFRQAEVDFKDHFNINRYDMLPKKFAEAALSYWMTWEPSTNTKMKILEMNAYEL” as the sequence, how does the “soluble on expression in E. coli” value read?
**A.** not soluble

**Q.** With “MGSDKIHHHHHHMNEQIIEDLSSPWSGNTVHLVTVDGSQLIKKQYRKKEGYLREVHALRTVPQAICPSLVDAYEQLTYEPLQKNIQAADLDEIIGSLLRELHQHTVQKPSVFDPGNGVTKETWLDYLESFAPNWLQTIGTEKYESMYWSAINSVRAAYDRNQRALCLIHRDARLANVGEGSDGRFLFLDFELAIIGDPLWDVARYLIQSVHSETTFLKAYEFDHTEIEVLQAYKKLYAMSFMNYLIKNKQADTLDFKKCVNVLTN” as the sequence, how does the “soluble on expression in E. coli” value read?
**A.** not soluble

**Q.** With “MGSDKIHHHHHHMNFDVAIIGGGLAGLTCAIALQQRGKRCVIINNGQAAIDFASGSLDLLSRMPSTTYGENRAVENLKENITALRNELPAHPYSLLGAEKVLAKAQDFERLANELHLDLIGSTEKNHWRVTGLGSLRGAWLSPNSVPTVQGNEPFPHKRIAVLGIEGYHDFQPQLLAANLVLNPQFEHCEVTSGFLNIPQLDELRKNAREFRSVNISQLLEHKLAFKDLVKEIIESAQGAEAVFLPACFGLENQEFMTALRDATKLALFELPTLPPSLLGMRQRIQLRHKFESLGGLMINGDSALNATFEGNQVRCINTRLLEDEEITADNFVLASGSFFSKGLISEFDKIYEPVFESDIIGVEGFNNKDRFTWTAHRFAHPQPYQSAGVAINAQCQVKKCGQFLTNLYAVGNVIGGFNALELGCGSGVAVVTALAVADEILAK” as the sequence, how does the “soluble on expression in E. coli” value read?
**A.** not soluble

**Q.** With “MGSDKIHHHHHHMNFPELKLSQTERDFNFDFAILEHDLSYFFEKRCLDYALEHINRFNHKIKDNLYNVRPLILKEALISLTCDLASVSFYHYLNMITFVNLRKDILHYLTTTTLTNDDFMPLLESIVNNYFSNLDTLDIPIDGTRLSKQVALVVYYIDNHCDEPLRANTILEELTLDPEYTKRKFRKELGFTINFYIRHAKLQRAKQLLINTHLPIGEIAERINFYNSAEFARQFQKEFDITPSKYRELNQIFYKEE” as the sequence, how does the “soluble on expression in E. coli” value read?
**A.** not soluble

**Q.** For “MGSDKIHHHHHHMNGKTIILANPRGFCAGVDRAISIVERALEEFGAPVYVRHEVVHNKFVVDNLREKGAVFIEDLAEVPPGATLVYSAHGVSKAVQQEAAERGFRVFDATCPLVTKVHKEVARLDAQDCEIIMIGHKGHAEVEGTMGQLAPGKMLLVETVGDVAKLEVRNPDKLAYVSQTTLSVDETKDIIAALNARFPNIRNPHKEDICYATTNRQTAVKELAEQCDIVIVVGSPNSSNSNRLREVAASRGIDAYMVDNASYLQRTWFEGKSKVGVTAGASAPEVLVREVLATIRGWGHETVREGGGAEESIVFVLPKELRREGETKPDLCKR”, which “soluble on expression in E. coli” value is on record?
**A.** not soluble

**Q.** Which “soluble on expression in E. coli” value does the source give for “MGSDKIHHHHHHMNGNIIVAHGMRHGRQNQALEAFISELVKDDIHHYDIAFLESEHQDLETVMTTLIQSGVDHFKIVPLLIFSAMHYLKDIPNIVHEMKRRYPDIKVEVSEPLGTHPLMRRLIEQRICDALAGDEQQVGVMVVAHGNINGNFTKAHEELQICAQHLQINKPTYARTLYGEISFTHDLESISKRYQKLIVVPLFLYDGRLVNKVKQQMNDMVINTDIHFTPSINFDPILKQIINDRLESLMIPMKI” here?
**A.** not soluble

**Q.** Which “soluble on expression in E. coli” value does the source give for “MGSDKIHHHHHHMNIKHLDVLRTLLATGSTIAAAKAMGLSQSGVSRMLQQLESDLAITLFARDKGRLIPTPEATVLGRDAQNVLLAIERMSGHAEDLRNGSAGPEIVRIGLPSSMWENFAPAMLIDYVRDFPGVRIETFFETTTAITKLVEERVIDLGFLRIEGETGPGIAIDKVASGESVCVVPKDHSLAELPEITVKHLRNVPLILIGRQRPNRMALDQAFQRAGVKQMVKIETHTNSSACSYVAHGLGVSIISSFYANLYRHLPVVYRPFVPRATQEFGLVRAAGVPLSIAAQALSDALKKQIRLSQEEQ” here?
**A.** not soluble

**Q.** Which “soluble on expression in E. coli” value does the source give for “MGSDKIHHHHHHMNILVTGGAGFIGSHVVDKLIENGYGVIVVDNLSSGKVENLNRNALFYEQSIEDEEMMERIFSLHRPEYVFHLAAQASVAISVREPARDAKTNIIGSLVLLEKSIKYGVKKFIFSSTGGAIYGENVKVFPTPETEIPHPISPYGIAKYSTEMYLEFFAREYGLKYTVLRYANVYGPRQDPYGEAGVVAIFTERMLRGEEVHIFGDGEYVRDYVYVDDVVRANLLAMEKGDNEVFNIGTGRGTTVNQLFKLLKEITGYDKEPVYKPPRKGDVRKSILDYTKAKEKLGWEPKVSLEEGLKLTVEYFRKTLE” here?
**A.** not soluble

**Q.** Which “soluble on expression in E. coli” value does the source give for “MGSDKIHHHHHHMNIPNIRLLNQQLLNPLFREPKELVSWMGAMQAQNYSMVKWAVGMRLKSATIQTVEKALREGEILRTHVMRPTWHLVAAEDIRWMLKLSAQRIISANDSFAKGYDLDIPNELYTKAHDLLEKILCGKKSLTKQEIAEHFNRSGIVADNRRMTRFMARAEQEGIICSGEDRGSKCTYALLEERVPPMPELTKDESLARLARSYFRSHSPAVLQDFIWWSGLSVSDAKQAVYLIASELITEQWKEQTWYIHDICRTRGKLSGHIHLLPSYDEYLLGYKDRTDVLPLEHYSKAFTNNGLFFPIVLHNGQVIGNWDKSVKKKSVDLKYSWFRQVADMNEETLERERQKFTRFLEK” here?
**A.** not soluble

**Q.** For “MGSDKIHHHHHHMNIQKVTFRNADMAWDMAALILLPEGFDESKRYPTMVSVHPFGSCKEQTSSAVYGKALAELGYVVIAFDASFQGESGGSPRYVEDPSQRVEDISRVIDYAVSLPYVDEDRIGGLGICGGGAYIFSSALTEKRLKAVVGITPVNLGRLFREGFSQYNPIGALEAMATQRTAEARGAELQVNELLPPSPEFAKQNGMTERDLFEATDYYKTPRGQAEGGATRMLFSHAQKTLSWDAFAFVETLMTQPMMAVVGQKLGAFGAYRDGHEVYGRSIVSKDRQLVELQDWSHYDLYDHPQAVSLAMEKIGPFLSQHL”, which “soluble on expression in E. coli” value is on record?
**A.** not soluble

**Q.** Which “soluble on expression in E. coli” value does the source give for “MGSDKIHHHHHHMNITNNRQYSWVGSREMCLDEISIKQYGEIVIGKYGGNISAGANKNEDGALVWSNGDWEFAAILDGHNSAESVDLVVNTIQKEYENIKEMMNESIDTVFRSIENHILTIFQSSSFKEKCQRIKGETACLLCVRKENYIWWLSIGDCLVYVFHDELHKLGQYALNQRHFYEWIGNVNTFDVPVPCYSSGIRELRTGNNRIVMVTDGVLEYGERRYETPLNLYNDMNRNNIKLEESVHHVLEHVHHQFGRDSATIISWDVENKGKATYPSDQPDKK” here?
**A.** not soluble

**Q.** For “MGSDKIHHHHHHMNKDIPVLIFSDKLNINGDYPIIKIINEQSLPYILKHEIGGLKDWFKSRVIPTNRNHLEKLIESLQFEKKPTALDYLKLNNGFSLNDSYWIKPLDISSMYPKDLCWDKYNLYDNKFEEALGLVTFFGNNTSLGGTVNTPKVSSPELTTQGVMNKAWRRTDNKLLLYKRGNIGAANLDKEHFSESIASEIGKILGLNCIPYWTDKWHNQNCSVCEIFTNKDKGYLPFRYFLEAIEPNRKKWGFANVIEWIPKEFKQDFLDMIVFDYIIENRDRHLGNFGFIIDNNTQELLSFAPLFDQGYSLMANALEEDFNKDLKEYSESHPSFVLENKDLAKYVIERNKQRYKGFTKTLRLKIDDINWFNCPNWYKEGIKKLIFTRCEVINSI”, which “soluble on expression in E. coli” value is on record?
**A.** not soluble

**Q.** For “MGSDKIHHHHHHMNKEVDLSVSCLGKVKELKYDVIILPWGATEPHNLHLPYLTDCILPHDIAVEAAELALSRSGVRCMVMPPVPFGAHNPGQRELPFCIHTRYATQQAILEDIVSSLHVQGFRKLLILSGHGGNNFKGMIRDLAFEYPDFLIAAANWFEVVSPKGYFEAEIDDHAGESETSVMMHYHPELVNLAEAGDGESKPFAIASLNEKVAWVPRHWDKATVDSGVGNPKKATAEKGERYVKPIVEKLAGLFEEMAQHDLYE”, which “soluble on expression in E. coli” value is on record?
**A.** not soluble

**Q.** For “MGSDKIHHHHHHMNKKGNTEEIIERLFSILSSEKDSIEFLKAVSEFSKFYEIDKKEQERRSSEAKSFVKMALQDFESVKILYQSKIYSLAVYHLQQAVEKYVKAYVLAFFGLSKKEMKGYVGHDSPKAFIRLLDRYKRSLELFLKSIQKIGGLDTQFLKISDEDIRKLVRIVNMSRKQIAEMDSNQIKGIINATIKIKIALENKEIKNQILGLLSKLKNEASEIKSSDPSEKFILEKLIDSVDRVLNNLETLLKLSSTFLVLYMLSIITYPHATFARYPNKTLPPEKYDENLGIVQYFNEIVKLLDEVANLLVYEI”, which “soluble on expression in E. coli” value is on record?
**A.** not soluble

**Q.** For “MGSDKIHHHHHHMNKLINRISPETSENRILHAGFSIILMSEEITQTLSGLSSDMIIFILSGSITIYSTKEEKKTIGEQYMIFLRSFENYTYDITLGSKIIIFFFDSLTMNELPYYQHPYGILPQPISKWIELKIVEPLYGFLELVGQYLENNFLNYPLYELKRTELFYLLKKLYRKEELDYFFYLSSTHSAEFERLIAENYIKAKTVTDLAQMIGYGVNSFRMKFKKVFGIPAYEWLMQEKSKRLLVAIANSEDDFKNIIDEFDFSSHSHFYKFCKARFGYSPTELRKKLKSL”, which “soluble on expression in E. coli” value is on record?
**A.** not soluble

**Q.** For “MGSDKIHHHHHHMNKLKIGTSGWVYKHWMDIFYPPNLPSDQQLSFYAQHFATVEINFSFYRLPERSVFETWHKQTPSNFLFAVKGSRYLTHMKKLKDPIEPLSRIMERASGLQEKLGPILFQFPHTWHINIERLQPFLELLQTYPKQKFTVEFRHSSWLIPQVYQLLETAGVGLCLPVSPTVPLDICLTAPWTYIRMHSGQWNVGYTDEELSTWVERIRSFLMQEIDVYVYFNNDPDGNAIRDAQRLYCLLGSC”, which “soluble on expression in E. coli” value is on record?
**A.** not soluble

**Q.** With “MGSDKIHHHHHHMNLPTASRLQFTPDLNICRILNGMWQVSGAHGRINPQAAIETMFKYLDAGFTTWDLADHYGPAEDFIGEFRCQLIDTRGKDALSKVQAFTKWVPRPGKMTKKLVEENIDISLRRMNVESLDLMQFHWWEYQDKNYLDALKYMAELQTEGKIKHLGLTNFDTENLKLITEAGIKIVSNQVQFSLIDRRPEVNMAEFCQQHDIKLFTYGTLCGSLLSENYLGKPEPRGSDLSTASLKKYKNMIDAWGGWQLFQELLAILKEIANKHKVSISNVAVRYILDQPTVGGVIVGARLGVSEHIEDNAKVFSFSLDADDRDRISAVSRQSRDLYQLIGDCGDEYRR” as the sequence, how does the “soluble on expression in E. coli” value read?
**A.** not soluble

**Q.** Which “soluble on expression in E. coli” value does the source give for “MGSDKIHHHHHHMNMEINPSEYKILIVDDVMSNVLLLKVLLTNEKFNIVTASNGNQALDQVKKENPDLILLDVMMPDMSGFEVSQKLKADPEAAHIPIIFLTALNSTADIVKGFQVGGNDFISKPFNKEELIIRVSHQISLVAAKRIIEAKTEELKKTIIGRDKLYSVIAHDLRSPMGSIKMVLNMLILSLPKEKIGEDMYELLTMANQTTEDVFSLLDNLLKWTKSQIGKLKVVYQDIDMVEVVEGVGEIFAMVAGLKNIRLRIESPECQAVHADIDMIKTVIRNLISNAIKFSNEGSEVLIKVEESDGMSVVSVKDSGCGIDEESQKKLLHTDTHFSTFGTNNEEGSGLGLLLCQDFVVKNGGKLWFTSVKDEGSTFYFSIPLKK” here?
**A.** not soluble
